In this experiment the target is T1, wild-type DENV2 16681 prM/E expressed in HEK-293T cells (Dengue virus 2, strain 16681, UniProt P29990).
T1 construct: also called WT DENV2 E protein; wild-type prM/E
Briefly: flow cytometry on cells. The note with it: one partner purified.

Results on one molecule are retold here after PMC10586629, “Single B cell transcriptomics identifies multiple isotypes of broadly neutralizing antibodies against flaviviruses” (PLOS Pathogens, 2023).

B1: F25.S02 IgG1 (antibody, V domains shown)
VH: QVQLVQSGAEVKKPGSSAKVSCKASGGTFSSYAISWVRQAPGQGLEWMGSIMPIFGTVNYAQKFQGRVTITADESTSTAYMELSRLRSEDTAVYFCARGWGGNYRSADLWIYFDLWGQGTLVTVSS
VL: QSALTQPRSVSGSPGQSVTISCTGTSSDVGGYKYVSWYQQHPGKAPKLMIYDVTKRPSGVPDRFSGSKSGNTASLTISGLQADDEADYYCCSYAGSYTHVVFGGGTKLTVL
With B1, the binding result is “binds”.
